T1: GST-fused SCRM (1-494) (Arabidopsis thaliana, UniProt Q9LSE2 1-494)
T1 construct: SCREAM (SCRM, also known as ICE1), Arabidopsis thaliana, At3G26744, residues 1-494; pGEX-4T-1 with thrombin site; GST kept because the protein was loaded on anti-GST probes for BLI; also called SCREAM; ICE1; source: E. coli BL21, purified (glutathione agarose resin); not shown: GST, N-terminal, kept
T1 sequence (looked up): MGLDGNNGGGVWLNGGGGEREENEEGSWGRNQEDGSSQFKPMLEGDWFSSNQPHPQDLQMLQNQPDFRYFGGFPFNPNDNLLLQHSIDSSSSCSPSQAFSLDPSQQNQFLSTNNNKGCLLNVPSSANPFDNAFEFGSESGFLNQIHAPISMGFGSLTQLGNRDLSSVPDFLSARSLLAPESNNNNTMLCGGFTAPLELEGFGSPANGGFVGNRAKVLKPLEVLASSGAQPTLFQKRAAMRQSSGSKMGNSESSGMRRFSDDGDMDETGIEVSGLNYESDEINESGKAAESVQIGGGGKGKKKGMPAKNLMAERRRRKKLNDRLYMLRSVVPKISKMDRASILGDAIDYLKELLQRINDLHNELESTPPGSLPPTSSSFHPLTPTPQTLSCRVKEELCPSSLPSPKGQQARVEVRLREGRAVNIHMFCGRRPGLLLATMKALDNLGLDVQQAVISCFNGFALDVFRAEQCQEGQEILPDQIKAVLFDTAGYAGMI

T2: GST-fused SCRMΔC (1-404) (Arabidopsis thaliana, UniProt Q9LSE2 1-404)
T2 construct: SCREAM (SCRM, ICE1), Arabidopsis thaliana, At3G26744, residues 1-404 (lacks the C-terminal ACTL domain); pGEX-4T-1; GST kept because the protein was loaded on anti-GST probes for BLI; also called SCRM1ΔC; source: E. coli BL21, purified (glutathione agarose resin); not shown: GST, N-terminal, kept
T2 sequence (looked up): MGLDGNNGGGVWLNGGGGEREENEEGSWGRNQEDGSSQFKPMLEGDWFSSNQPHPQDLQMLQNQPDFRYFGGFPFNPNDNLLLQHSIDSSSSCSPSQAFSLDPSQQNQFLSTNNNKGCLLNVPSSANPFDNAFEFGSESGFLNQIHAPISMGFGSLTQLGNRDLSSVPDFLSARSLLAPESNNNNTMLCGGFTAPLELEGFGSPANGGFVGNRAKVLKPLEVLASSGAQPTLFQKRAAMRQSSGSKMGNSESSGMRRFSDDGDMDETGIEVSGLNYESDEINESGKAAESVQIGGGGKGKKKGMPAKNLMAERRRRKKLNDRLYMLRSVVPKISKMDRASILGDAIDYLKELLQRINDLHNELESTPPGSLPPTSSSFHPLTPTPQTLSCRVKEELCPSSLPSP

B1: SCRMΔC (1-404), GST removed (domain or fragment, Arabidopsis thaliana, UniProt Q9LSE2 1-404, looked up)
chain: MGLDGNNGGGVWLNGGGGEREENEEGSWGRNQEDGSSQFKPMLEGDWFSSNQPHPQDLQMLQNQPDFRYFGGFPFNPNDNLLLQHSIDSSSSCSPSQAFSLDPSQQNQFLSTNNNKGCLLNVPSSANPFDNAFEFGSESGFLNQIHAPISMGFGSLTQLGNRDLSSVPDFLSARSLLAPESNNNNTMLCGGFTAPLELEGFGSPANGGFVGNRAKVLKPLEVLASSGAQPTLFQKRAAMRQSSGSKMGNSESSGMRRFSDDGDMDETGIEVSGLNYESDEINESGKAAESVQIGGGGKGKKKGMPAKNLMAERRRRKKLNDRLYMLRSVVPKISKMDRASILGDAIDYLKELLQRINDLHNELESTPPGSLPPTSSSFHPLTPTPQTLSCRVKEELCPSSLPSP
notes: SCREAM (SCRM, ICE1), Arabidopsis thaliana, At3G26744, residues 1-404 (lacks the C-terminal ACTL domain); Used for ITC; the methods tell thrombin cleavage of the GST-fused proteins in general, not for ITC by name; also called SCRM1ΔC; source: E. coli BL21, purified (glutathione resin, thrombin, Superdex-200); not shown: GST, N-terminal, cleaved
B2: SPCH (ΔNSPCH, 98-364) (domain or fragment, Arabidopsis thaliana, UniProt Q700C7 98-364, looked up)
chain: GQQKMSHVTVERNRRKQMNEHLTVLRSLMPCFYVKRGDQASIIGGVVEYISELQQVLQSLEAKKQRKTYAEVLSPRVVPSPRPSPPVLSPRKPPLSPRINHHQIHHHLLLPPISPRTPQPTSPYRAIPPQLPLIPQPPLRSYSSLASCSSLGDPPPYSPASSSSSPSVSSNHESSVINELVANSKSALADVEVKFSGANVLLKTVSHKIPGQVMKIIAALEDLALEILQVNINTVDETMLNSFTIKIGIECQLSAEELAQQIQQTFC
notes: the only recombinant SPCH with bHLH domain that the methods list is ΔNSPCH (98-364); source: E. coli BL21, purified (glutathione resin, thrombin, Superdex-200); not shown: GST, N-terminal, cleaved
B3: FAMA (ΔNFAMA) (domain or fragment)
chain: ESQRMTHIAVERNRRKQMNEHLRVLRSLMPGSYVQRGDQASIIGGAIEFVRELEQLLQCLESQKRRRILGETGRDMTTTTTSSSSPITTVANQAQPLIITGNVTELEGGGGLREETAENKSCLADVEVKLLGFDAMIKILSRRRPGQLIKTIAALEDLHLSILHTNITTMEQTVLYSFNVKITSETRFTAEDIASSIQQIFSFIHANTNISGSSNLGNIVFT
modifications: Limits not printed. Start set by analogy with the printed ΔNSPCH 98-364 (one residue before the annotated bHLH). Runs to the native C-terminus. Tag or fusion carrier omitted.

What was measured:
[1] = molecular target: GST-fused SCRMΔC (1-404) (Arabidopsis thaliana) (UniProt Q9LSE2); experiment: BLI; as a1, samples incubated 30 min with a 1:4 molar ratio of the synthetic E-box repeat fragment; analyte 200-3.125 nM or 1000-25 nM
GST-fused SCRM (1-494) [2] = molecular target: T1, GST-fused SCRM (1-494); experiment: as above; settings: both partners purified
[3] = molecular target: GST-fused SCRMΔC (1-404) (Arabidopsis thaliana) (UniProt Q9LSE2); experiment: BLI; as a1, samples incubated 30 min with a 1:4 molar ratio of the TMM promoter fragment containing the E-box; analyte 200-3.125 nM or 1000-25 nM
GST-fused SCRM (1-494) [4] = molecular target: T1, GST-fused SCRM (1-494); experiment: as above; settings: both partners purified
GST-fused SCRM (1-494) [5] = molecular target: T1, GST-fused SCRM (1-494); experiment: BLI; as a1, samples incubated 30 min with a 1:4 molar ratio of the TMM promoter fragment containing a mutant E-box (control); analyte 200-3.125 nM or 1000-25 nM; settings: both partners purified
GST-fused SCRM (1-494) [6] = molecular target: T1, GST-fused SCRM (1-494); experiment: BLI; Octet Red96; anti-GST probes loaded with 500 nM GST-SCRM or GST-SCRMΔC; SPCH/MUTE/FAMA as analyte at 200-3.12 nM; 30 °C; 1x PBS, 0.02% Tween 20; no DNA; 1:1 model for kon, koff and KD, steady-state analysis for KD (SS); settings: both partners purified
SPCH (ΔNSPCH, 98-364) = molecular target: B2; experiment: ITC; Malvern PEAQ-ITC; 40 µM SCRM/SCRMΔC injected into 4 µM SPCH/MUTE/FAMA; PBS, pH 7.2 (Table S1; methods: pH 7.4); 25 °C; single binding site model; means of two experiments; settings: both partners purified
FAMA (ΔNFAMA) = molecular target: B3; experiment: as above; settings: both partners purified
GST-fused SCRMΔC (1-404) [7] = molecular target: T2, GST-fused SCRMΔC (1-404); experiment: BLI; as a1, samples incubated 30 min with a 1:4 molar ratio of the synthetic E-box repeat fragment; analyte 200-3.125 nM or 1000-25 nM; settings: both partners purified
GST-fused SCRMΔC (1-404) [8] = molecular target: T2, GST-fused SCRMΔC (1-404); experiment: BLI; as a1, samples incubated 30 min with a 1:4 molar ratio of the TMM promoter fragment containing the E-box; analyte 200-3.125 nM or 1000-25 nM; settings: both partners purified
GST-fused SCRMΔC (1-404) [9] = molecular target: T2, GST-fused SCRMΔC (1-404); experiment: BLI; as a1, samples incubated 30 min with a 1:4 molar ratio of the TMM promoter fragment containing a mutant E-box (control); analyte 200-3.125 nM or 1000-25 nM; settings: both partners purified
[10] = molecular target: B1; experiment: ITC; Malvern PEAQ-ITC; 40 µM SCRM/SCRMΔC injected into 4 µM SPCH/MUTE/FAMA; PBS, pH 7.2 (Table S1; methods: pH 7.4); 25 °C; single binding site model; means of two experiments; settings: both partners purified
GST-fused SCRMΔC (1-404) [11] = molecular target: T2, GST-fused SCRMΔC (1-404); experiment: BLI; Octet Red96; anti-GST probes loaded with 500 nM GST-SCRM or GST-SCRMΔC; SPCH/MUTE/FAMA as analyte at 200-3.12 nM; 30 °C; 1x PBS, 0.02% Tween 20; no DNA; 1:1 model for kon, koff and KD, steady-state analysis for KD (SS); settings: both partners purified

Kd (GST-fused SCRM (1-494) [2]) [nM]	koff (GST-fused SCRM (1-494) [2]) [s⁻¹]	kon (GST-fused SCRM (1-494) [2]) [M⁻¹ s⁻¹]	Kd (GST-fused SCRM (1-494) [4]) [nM]	koff (GST-fused SCRM (1-494) [4]) [s⁻¹]	kon (GST-fused SCRM (1-494) [4]) [M⁻¹ s⁻¹]	Kd (GST-fused SCRM (1-494) [5]) [nM]	koff (GST-fused SCRM (1-494) [5]) [s⁻¹]	kon (GST-fused SCRM (1-494) [5]) [M⁻¹ s⁻¹]	Kd (GST-fused SCRM (1-494) [6]) [nM]	koff (GST-fused SCRM (1-494) [6]) [s⁻¹]	kon (GST-fused SCRM (1-494) [6]) [M⁻¹ s⁻¹]	Kd (GST-fused SCRMΔC (1-404) [7]) [nM]	koff (GST-fused SCRMΔC (1-404) [7]) [s⁻¹]	kon (GST-fused SCRMΔC (1-404) [7]) [M⁻¹ s⁻¹]	Kd (GST-fused SCRMΔC (1-404) [8]) [nM]	koff (GST-fused SCRMΔC (1-404) [8]) [s⁻¹]	kon (GST-fused SCRMΔC (1-404) [8]) [M⁻¹ s⁻¹]	Kd (GST-fused SCRMΔC (1-404) [9]) [nM]	koff (GST-fused SCRMΔC (1-404) [9]) [s⁻¹]	Binder	further results
5.1 ± 0.3	0.000285	56200	7.3 ± 0.2	0.000286	39200	11.1 ± 0.8	0.00023	20800	6.1 ± 0.5	0.000147	24200	–	–	–	–	–	–	–	–	MUTE (1-202) (natural protein, Arabidopsis thaliana, UniProt Q9M8K6 1-202, looked up, MUTE, Arabidopsis thaliana, residues 1-202; MUTE (1-202) was made both as a GST fusion (pGEX-4T-1, thrombin-cleavable) and with an N-terminal His tag (pET28a); also called MUTE-HIS; MUTE-histag; source: E. coli BL21, purified (Ni-NTA or glutathione resin, Superdex-200)) MSHIAVERNRRRQMNEHLKSLRSLTPCFYIKRGDQASIIGGVIEFIKELQQLVQVLESKKRRKTLNRPSFPYDHQTIEPSSLGAATTRVPFSRIENVMTTSTFKEVGACCNSPHANVEAKISGSNVVLRVVSRRIVGQLVKIISVLEKLSFQVLHLNISSMEETVLYFFVVKIGLECHLSLEELTLEVQKSFVSDEVIVSTN	Kd [1]: 545 nM; koff [1]: 0.0017 s⁻¹; kon [1]: 3100 M⁻¹ s⁻¹; Kd [3]: 565 nM; koff [3]: 0.0016 s⁻¹; kon [3]: 2850 M⁻¹ s⁻¹
–	–	–	–	–	–	–	–	–	–	–	–	–	–	–	–	–	–	–	–	B1	stoichiometry N (SPCH (ΔNSPCH, 98-364)): 0.95; stoichiometry N (FAMA (ΔNFAMA)): 0.96
7.2 ± 0.4	0.000354	49200	3.9 ± 0.3	0.000153	39200	6.8 ± 0.5	0.000144	21200	5.8 ± 0.5	0.000111	19200	38.1 ± 1.9	0.000184	4850	49 ± 1.3	0.000208	4250	78.2 ± 1.2	0.000183	B2	kon (GST-fused SCRMΔC (1-404) [9]): 2350 M⁻¹ s⁻¹; Kd [10]: 61.1 ± 4.2 nM; Kd (GST-fused SCRMΔC (1-404) [11]): 59.1 ± 1.3 nM; koff (GST-fused SCRMΔC (1-404) [11]): 0.00012 s⁻¹; kon (GST-fused SCRMΔC (1-404) [11]): 2050 M⁻¹ s⁻¹
8.5 ± 0.7	0.000367	43200	9.2 ± 0.3	0.000395	43200	15.5 ± 0.6	0.000282	18200	7.2 ± 0.5	0.000159	22200	59.1 ± 1.3	0.00023	3910	68.3 ± 1.4	0.000263	3910	85 ± 1.8	0.000221	B3	kon (GST-fused SCRMΔC (1-404) [9]): 2610 M⁻¹ s⁻¹; Kd [10]: 68.1 ± 5.2 nM; Kd (GST-fused SCRMΔC (1-404) [11]): 55.1 ± 1.3 nM; koff (GST-fused SCRMΔC (1-404) [11]): 0.00016 s⁻¹; kon (GST-fused SCRMΔC (1-404) [11]): 2910 M⁻¹ s⁻¹

From publication PMC8892516, “Intragenic suppressors unravel the role of the SCREAM ACT-like domain for bHLH partner selectivity in stomatal development” (Proceedings of the National Academy of Sciences of the …, 2022)
